First the molecules themselves.
B1: scFv; the commonest letter at each place (parent)
chain 1: EVKLDETGGGLVQPGRPMKLSCVASGFTFSDYWMNWVRQSPEKGLEWVAQIRNKPYNYETYYSDSVKGRFTISRDDSKSSVYLQMNNLRVEDMGIYYCTGSYYGMDYWGQGTSVTVS
chain 2: DVVMTQTPLSLPVSLGDQASISCRSSQSLVHSNGNTYLRWYLQKPGQSPKVLIYKVSNRFSGVPDRFSGSGSGTDFTLKISRVEAEDLGVYFCSQSTHVPWTFGGGTKLEIK

The variants in series [1] derive from B1. The experiment in a line: Kd (Tite-Seq). The settings on record: with fluorescein; format: scFv 4-4-20, heavy + light.
In series [2] the parent is B1. The experiment in a line: yeast surface expression (ratio to wild type); higher = more expressed. Particulars: format: scFv 4-4-20, heavy + light.

Bounds are passed on as bounds.

One may read the Kd as the equilibrium constant for the complex coming apart. For chain 1 Y32N M34V, the Kd in series [1] is at least 10 µM. For the same variant, the yeast surface expression in series [2] was 0.683.

On to chain 1 Y32N M34E, for which the Kd in series [1] is 0.021 µM.

Regarding chain 1 Y32N M34G, in series [1], the Kd is at least 10 µM. Moreover, the yeast surface expression in series [2] was determined as 0.608.

chain 1 Y102C G109A: the Kd in series [1] is 2.47 µM. The yeast surface expression in series [2] amounted to 0.619.

As for chain 1 Y102C G109R, the Kd in series [1] was at least 10 µM. Further, the yeast surface expression in series [2] was determined as 0.304.

For the variant chain 1 Y32W V37S, the Kd in series [1] is at least 10 µM. Moreover, in series [2], the yeast surface expression was 0.579.

As to chain 1 Y102C M105P, the Kd in series [1] was at least 10 µM. Moreover, in series [2], the yeast surface expression was 0.69.

chain 1 Y32M W36D: in series [1], the Kd was at least 10 µM. The yeast surface expression in series [2] is 0.63.

In the case of chain 1 Y32M W36M, the Kd in series [1] was at least 10 µM. Moreover, in series [2], the yeast surface expression is 0.672.

For chain 1 Y32G W33N, in series [1], the Kd is at least 10 µM. For the same variant, the yeast surface expression in series [2] was 0.799.

As to chain 1 Y32G W33A, the Kd in series [1] is at least 10 µM. Moreover, in series [2], the yeast surface expression was found to be 0.708.

For chain 1 Y32K M34F W36H, the Kd in series [1] was at least 10 µM. Moreover, the yeast surface expression in series [2] was determined as 0.381.

Take chain 1 Y102E G104E: the Kd in series [1] was at least 10 µM. Further, in series [2], the yeast surface expression was found to be 0.934.

Take chain 1 Y102E G104N: the Kd in series [1] was at least 10 µM. The yeast surface expression in series [2] was 0.819.

Turning to chain 1 Y102F G104Y W108D, the Kd in series [1] was at least 10 µM. The yeast surface expression in series [2] was determined as 0.204.

Regarding chain 1 Y32H M34H, the Kd in series [1] was at least 10 µM. Moreover, the yeast surface expression in series [2] was found to be 0.674.

As for chain 1 Y32H M34Q, in series [1], the Kd is at least 10 µM. Besides, the yeast surface expression in series [2] came to 0.862.

For chain 1 Y32C V37Q, in series [1], the Kd was at least 10 µM. Also, the yeast surface expression in series [2] was 0.692.

In the case of chain 1 Y32H N35Q, the Kd in series [1] was at least 10 µM. In addition, the yeast surface expression in series [2] was found to be 0.811.

On to chain 1 Y32H N35T, for which, in series [1], the Kd was at least 10 µM. Besides, in series [2], the yeast surface expression came out at 0.813.

In the case of chain 1 Y32H N35D, the Kd in series [1] is at least 10 µM. Further, in series [2], the yeast surface expression is 0.772.

With chain 1 Y32H N35E, in series [1], the dissociation constant (Kd) is at least 10 µM. Besides, the yeast surface expression in series [2] is 0.518.

In the case of chain 1 Y32I W36Y, the Kd in series [1] was at least 10 µM. Further, the yeast surface expression in series [2] was determined as 0.612.

In the case of chain 1 Y32I W36G, in series [1], the Kd is at least 10 µM. Further, the yeast surface expression in series [2] was 0.465.

For chain 1 Y32I W36P, the dissociation constant Kd in series [1] was determined as 0.0391 µM. Further, in series [2], the yeast surface expression was 0.723.

Consider chain 1 Y32W N35T, for which the Kd in series [1] is at least 10 µM. The yeast surface expression in series [2] worked out at 0.786.

As for chain 1 Y102C W108I, the Kd in series [1] was at most 0.000316 µM. Also, the yeast surface expression in series [2] stood at 0.7.

Regarding chain 1 Y32G W36H, the Kd in series [1] is at least 10 µM. Further, in series [2], the yeast surface expression turned out to be 0.209.

In the case of chain 1 Y32L V37R, in series [1], the Kd was at least 10 µM. In addition, in series [2], the yeast surface expression is 0.0981.

For the variant chain 1 Y102A Y103E, the Kd in series [1] is at least 10 µM. For the same variant, the yeast surface expression in series [2] amounted to 1.23.

For the variant chain 1 Y102A Y103K, in series [1], the Kd is 4.14 µM. In addition, in series [2], the yeast surface expression came out at 1.15.

With chain 1 Y32W W33Q, the Kd in series [1] was at least 10 µM. In addition, the yeast surface expression in series [2] is 0.886.

Turning to chain 1 Y32W W33Y, in series [1], the Kd was at least 10 µM. In addition, in series [2], the yeast surface expression was 0.945.

Turning to chain 1 Y32W W33F, in series [1], the Kd is at least 10 µM. For the same variant, in series [2], the yeast surface expression turned out to be 0.941.

As to chain 1 Y32W W33P, the dissociation constant (Kd) in series [1] was at least 10 µM. Further, in series [2], the yeast surface expression came to 0.825.

In the case of chain 1 Y32D M34Y, the Kd in series [1] was at least 10 µM. Also, in series [2], the yeast surface expression worked out at 0.756.

For chain 1 Y32K N35R, the Kd in series [1] is at least 10 µM. Besides, in series [2], the yeast surface expression worked out at 0.103.

As for chain 1 Y32D N35Y, the Kd in series [1] is at least 10 µM. In addition, the yeast surface expression in series [2] stood at 0.498.

With chain 1 Y32A V37Y, the Kd in series [1] came to 0.205 µM. The yeast surface expression in series [2] was 1.23.

Turning to chain 1 Y32S V37F, in series [1], the Kd is 8.13 µM. Further, the yeast surface expression in series [2] stood at 0.891.

As to chain 1 Y102A Y103K G109C, in series [1], the dissociation constant Kd was at least 10 µM. Further, the yeast surface expression in series [2] came out at 0.237.

Take chain 1 Y32R M34W V37M: in series [1], the Kd is at least 10 µM. For the same variant, the yeast surface expression in series [2] turned out to be 0.728.

With chain 1 Y32Q W33N, the Kd in series [1] was at least 10 µM. Also, the yeast surface expression in series [2] worked out at 0.726.

With chain 1 W108S G109N, the Kd in series [1] was at least 10 µM. For the same variant, the yeast surface expression in series [2] came to 0.413.

Take chain 1 W108S G109S: the Kd in series [1] was 5.96 µM. Further, in series [2], the yeast surface expression was determined as 0.37.

With chain 1 W108S G109R, the Kd in series [1] was at least 10 µM. Besides, the yeast surface expression in series [2] is 0.307.

As to chain 1 Y32L M34T W36I, in series [1], the Kd was at least 10 µM. Besides, in series [2], the yeast surface expression was determined as 0.622.

With chain 1 Y32E W36Q, the dissociation constant Kd in series [1] came to 0.216 µM. Moreover, the yeast surface expression in series [2] is 0.493.

Take chain 1 Y32E W36N: the Kd in series [1] was at least 10 µM. Further, the yeast surface expression in series [2] was 1.09.

As to chain 1 Y32E W36H, the Kd in series [1] is at least 10 µM. Also, the yeast surface expression in series [2] turned out to be 0.342.

In the case of chain 1 Y32C M34F, the Kd in series [1] was at least 10 µM. Moreover, the yeast surface expression in series [2] was 0.872.

In the case of chain 1 Y32C M34T, the Kd in series [1] is at least 10 µM. In series [2], the yeast surface expression is 0.664.

chain 1 Y32C M34P: the equilibrium dissociation constant (Kd) in series [1] is at least 10 µM. In series [2], the yeast surface expression was determined as 0.562.

For the variant chain 1 Y32C M34K, the Kd in series [1] was at least 10 µM. In addition, the yeast surface expression in series [2] stood at 1.04.

Regarding chain 1 Y32C M34Y, the Kd in series [1] is at least 10 µM. Further, the yeast surface expression in series [2] was 0.843.

Turning to chain 1 W108N G109N, the Kd in series [1] was at least 10 µM. Moreover, in series [2], the yeast surface expression was 0.335.

On to chain 1 W108N G109P, for which, in series [1], the Kd is at least 10 µM. Also, the yeast surface expression in series [2] came out at 0.396.

Turning to chain 1 Y32R W36Y, the Kd in series [1] stood at 7.72 µM. Moreover, in series [2], the yeast surface expression worked out at 0.635.

The record behind these values is the FLAb antibody collection (doi:10.7554/elife.23156).
